Patent publication US20240182596A1 (TUBULIS, published 2024)

What was measured:
[1] = target: T1, FcγRIIIa (CD16) (F158) (Homo sapiens, UniProt P08637); experiment: Lumit FcγRIIIa (F158) Binding Immunoassay (Promega), right panel FcγRIIIa (CD16) (F158), competition with Tracer-LgBiT for FcγR-SmBiT, falling luminescence means binding, n=1
T1 construct: m21 joins both polymorphic variants; also called F158 variant of m21
Protocol: Luminescence is measured on a microplate reader Infinite M200 Pro (Tecan). Graphs show n=1.
Luminescence was measured on a microplate reader Infinite M200 Pro (Tecan). Graphs show n=1.

[2] = target: T2, HEK293 cyno-NaPi2B-mCherry (Macaca fascicularis, UniProt A0A2K5UHY1); experiment: flow cytometry on HEK293 cells stably expressing cynomolgus full-length NaPi2b-mCherry, Alexa-dye anti-human IgG H+L secondary antibody, MFI ratio, one-site specific binding fit; the Kd table prints no unit, the concentration axis is in nM
T2 construct: full-length mCherry fusion stably expressed on HEK293 cells; also called cynomolgus full-length NaPi2b-mCherry on HEK293 cells
T2 sequence (target on cells): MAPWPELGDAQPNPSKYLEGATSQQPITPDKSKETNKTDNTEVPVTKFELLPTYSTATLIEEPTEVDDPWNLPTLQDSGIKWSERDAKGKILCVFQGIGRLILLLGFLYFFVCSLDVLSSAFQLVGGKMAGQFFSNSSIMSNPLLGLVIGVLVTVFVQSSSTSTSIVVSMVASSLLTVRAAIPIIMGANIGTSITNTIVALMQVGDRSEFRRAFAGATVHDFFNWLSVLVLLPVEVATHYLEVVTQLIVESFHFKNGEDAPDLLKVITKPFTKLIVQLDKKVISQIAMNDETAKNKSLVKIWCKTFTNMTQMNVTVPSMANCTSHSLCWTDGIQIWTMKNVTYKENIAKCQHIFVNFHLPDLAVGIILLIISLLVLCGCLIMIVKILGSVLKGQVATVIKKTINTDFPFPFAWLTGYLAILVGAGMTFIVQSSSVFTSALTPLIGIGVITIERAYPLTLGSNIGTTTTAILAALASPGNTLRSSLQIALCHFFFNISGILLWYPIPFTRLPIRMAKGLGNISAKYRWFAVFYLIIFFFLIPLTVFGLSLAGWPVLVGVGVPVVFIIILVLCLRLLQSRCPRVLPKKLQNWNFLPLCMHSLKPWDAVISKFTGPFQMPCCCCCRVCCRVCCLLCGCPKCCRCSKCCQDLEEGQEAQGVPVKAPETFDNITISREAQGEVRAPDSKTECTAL
Description: HEK293 cells stably overexpressing human and rat Napi2b were generated by stable integration of a human or rat full-length Napi2b-mCherry-(GGGS)3x-mCherry expression construct under control of a human EF1 promoter and a Puromycin-selection cassette under a CMV promoter into the parental HEK293 cell line. In brief, cells were transfected with the linearized plasmids using Lipfectamine 2000 (Thermo Fisher) and selected with Puromycin antibiotic. Cells were then single cell cloned in 96-well plates via serial dilution under continuous antibiotic selection. Clones were screened for target expression via flow cytometry and mCherry fluorescence via flow cytometry and fluorescence microscopy. Target- and mCherry-positive clones were expanded and used for further experiments. […] Binding of antibodies was investigated on mCherry-positive cells. Mean fluorescence intensity (MFI) ratios were normalized to the secondary antibody control. The assay was performed in duplicates and data points were analyzed by a non-linear regression using a one-site specific binding model to derive KD values using Prism 9 software.

[3] = target: T3, recombinant hexameric C1q complement protein (human) (human, UniProt P02745 23-245; P02746 28-253; P02747 29-245); experiment: HTRF Human C1q Binding Kit (Cisbio), HTRF ratio at 70 nM antibody with the diluent-only background subtracted
T3 construct: also called complement factor C1q
T3 sequence (P02745 23-245 limits assumed, chain 1 of 3): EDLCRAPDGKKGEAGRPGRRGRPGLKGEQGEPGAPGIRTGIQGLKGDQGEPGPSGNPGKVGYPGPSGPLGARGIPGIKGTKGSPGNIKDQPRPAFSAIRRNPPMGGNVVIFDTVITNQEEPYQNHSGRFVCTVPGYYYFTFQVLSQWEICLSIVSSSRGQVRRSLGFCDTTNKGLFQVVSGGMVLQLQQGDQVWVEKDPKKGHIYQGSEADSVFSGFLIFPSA
T3 sequence (P02746 28-253 limits assumed, chain 2 of 3): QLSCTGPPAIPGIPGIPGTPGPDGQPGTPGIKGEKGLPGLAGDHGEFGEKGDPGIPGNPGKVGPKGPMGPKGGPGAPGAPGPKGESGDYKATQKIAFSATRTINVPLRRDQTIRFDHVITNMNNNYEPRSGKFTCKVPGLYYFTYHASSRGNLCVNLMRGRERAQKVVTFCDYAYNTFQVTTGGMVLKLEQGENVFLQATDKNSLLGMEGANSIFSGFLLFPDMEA
T3 sequence (P02747 29-245 limits assumed, chain 3 of 3): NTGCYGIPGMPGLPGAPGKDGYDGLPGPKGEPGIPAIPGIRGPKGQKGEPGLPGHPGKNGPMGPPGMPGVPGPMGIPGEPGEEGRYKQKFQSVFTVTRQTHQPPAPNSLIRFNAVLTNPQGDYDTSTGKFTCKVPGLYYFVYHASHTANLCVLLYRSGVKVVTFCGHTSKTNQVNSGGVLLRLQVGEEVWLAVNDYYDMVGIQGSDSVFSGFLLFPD
Protocol: C1q interaction studies were performed using the HTRF Human C1q Binding Kit (Cisbio) according to the manufacturer's instructions. […] If the antibodies bind to human C1q, an anti-C1q antibody labelled with Europium cryptate (fluorescence donor) can come in close proximity to the fluorescence acceptor and fluorescence resonance energy transfer (FRET) is triggered. Fluorescence emission at 665 nm is measured on a microplate reader Infinite M200 Pro (Tecan)._Graphs show means of n=2±SD.
HTRF ratio was calculated by dividing the acceptor emission signal at 665 nm by the donor emission signal at 620 nm and multiplying by 10000.

[4] = target: T4, human NaPi2b on NaPi2b-positive cell lines OVCAR-3 and HCC-78 (human, UniProt O95436 1-690); experiment: flow cytometry on HCC-78 cells, one-site fit
T4 construct: Endogenous protein
T4 sequence: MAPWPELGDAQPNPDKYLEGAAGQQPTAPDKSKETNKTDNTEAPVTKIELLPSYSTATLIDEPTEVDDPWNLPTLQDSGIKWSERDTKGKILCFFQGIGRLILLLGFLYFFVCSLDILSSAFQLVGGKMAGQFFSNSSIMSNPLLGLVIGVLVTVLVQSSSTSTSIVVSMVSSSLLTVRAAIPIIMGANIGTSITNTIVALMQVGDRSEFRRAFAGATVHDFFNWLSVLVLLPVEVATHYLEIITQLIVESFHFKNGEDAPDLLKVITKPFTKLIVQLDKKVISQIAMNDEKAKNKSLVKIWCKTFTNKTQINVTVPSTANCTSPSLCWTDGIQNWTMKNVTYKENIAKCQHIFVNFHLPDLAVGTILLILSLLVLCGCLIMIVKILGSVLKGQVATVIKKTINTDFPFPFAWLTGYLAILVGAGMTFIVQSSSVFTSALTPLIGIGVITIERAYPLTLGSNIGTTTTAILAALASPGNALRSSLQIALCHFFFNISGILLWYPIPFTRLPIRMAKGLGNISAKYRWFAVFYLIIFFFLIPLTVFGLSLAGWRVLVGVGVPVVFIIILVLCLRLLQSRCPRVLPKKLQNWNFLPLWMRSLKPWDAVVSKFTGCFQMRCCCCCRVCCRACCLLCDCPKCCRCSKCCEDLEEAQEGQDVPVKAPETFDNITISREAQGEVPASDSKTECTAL
Protocol: To determine concentration-dependent binding, NaPi2b-positive OVCAR-3 and HCC-78 were incubated with antibodies in concentrations ranging from 0.00075 to 30 μg/ml, stained with an Alexa-dye-labeled anti-human IgG H+L secondary antibody (Thermo Fisher Scientific), and analyzed by flow cytometry. Mean fluorescence intensity (MFI) ratios were normalized to the non-specific binding control. The assay was performed in duplicates and data points were analyzed by a non-linear regression using a one-site specific binding model using Prism 9 software.

[5] = target: T4, human NaPi2b on NaPi2b-positive cell …; experiment: flow cytometry on OVCAR-3 cells; table column Binding KD (nmol/L), FACS (OVCAR-3)
[6] = target: T5, human Napi2c-mCherry on HEK293 cells (human, UniProt Q8N130 1-599); experiment: flow cytometry on HEK293 cells expressing human Napi2c-mCherry (panel Napi2c-HEK293), MFI ratio to the non-specific binding control
T5 construct: whole, on cells; also called Napi2c (SLC34A3); not shown: mCherry fusion
T5 sequence (looked up): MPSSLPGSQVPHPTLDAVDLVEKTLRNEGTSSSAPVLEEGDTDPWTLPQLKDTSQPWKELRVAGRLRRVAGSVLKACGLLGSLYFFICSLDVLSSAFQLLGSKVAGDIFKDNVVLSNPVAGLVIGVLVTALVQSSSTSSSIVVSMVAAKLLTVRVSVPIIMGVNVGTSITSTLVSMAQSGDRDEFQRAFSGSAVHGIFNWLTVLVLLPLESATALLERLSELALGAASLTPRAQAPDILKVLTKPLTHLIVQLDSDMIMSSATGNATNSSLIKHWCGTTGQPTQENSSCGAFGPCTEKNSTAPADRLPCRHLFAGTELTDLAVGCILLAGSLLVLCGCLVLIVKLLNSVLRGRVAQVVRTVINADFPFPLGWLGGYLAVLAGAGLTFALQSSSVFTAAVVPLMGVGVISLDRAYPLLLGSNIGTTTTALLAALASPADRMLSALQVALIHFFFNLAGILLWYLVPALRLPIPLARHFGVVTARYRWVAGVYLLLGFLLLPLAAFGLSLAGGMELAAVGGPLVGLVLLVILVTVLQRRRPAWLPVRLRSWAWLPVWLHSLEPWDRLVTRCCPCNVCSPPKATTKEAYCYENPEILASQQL

T1 sequence (P08637 17-208 limits assumed): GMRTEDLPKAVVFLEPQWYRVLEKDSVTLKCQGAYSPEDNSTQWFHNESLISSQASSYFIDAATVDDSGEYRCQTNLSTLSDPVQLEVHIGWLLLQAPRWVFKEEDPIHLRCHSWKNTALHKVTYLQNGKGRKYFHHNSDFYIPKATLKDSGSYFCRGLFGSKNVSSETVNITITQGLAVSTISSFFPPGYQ

B1: AV25 mAb, LALA-silenced (AV25 HC-LALA) (antibody, human IgG1, kappa, L234A L235A)
heavy: not shown
light: DIQMTQSPSSLSASVGDRVTITCSASQDIGNFLNWYQQKPGKTVKVLIYYASSLYSGVPSRFSGSGSGTDYTLTISSLQPEDFATYYCQQYSKLPLTFGQGTKLELKRTVAAPSVFIFPPSDEQLKSGTASVVCLLNNFYPREAKVQWKVDNALQSGNSQESVTEQDSKDSTYSLSSTLTLSKADYEKHKVYACEVTHQGLSSPVTKSFNRGEC
notes: also called unmodified AV25 mAb
binding result [1]: binds | Kd [2]: 1.43 nM | binding result [3]: no binding (tested: 70 nM) | Kd [4]: 0.42 µg/mL | Kd [5]: 2.7 nM | binding result [6]: no binding (tested: 200 nM)
